Experimental data published in article PMC10269845.

Molecular target: plasminogen (UniProt P00747)
Assay: SPR

Chain of plasminogen (P00747 20-810): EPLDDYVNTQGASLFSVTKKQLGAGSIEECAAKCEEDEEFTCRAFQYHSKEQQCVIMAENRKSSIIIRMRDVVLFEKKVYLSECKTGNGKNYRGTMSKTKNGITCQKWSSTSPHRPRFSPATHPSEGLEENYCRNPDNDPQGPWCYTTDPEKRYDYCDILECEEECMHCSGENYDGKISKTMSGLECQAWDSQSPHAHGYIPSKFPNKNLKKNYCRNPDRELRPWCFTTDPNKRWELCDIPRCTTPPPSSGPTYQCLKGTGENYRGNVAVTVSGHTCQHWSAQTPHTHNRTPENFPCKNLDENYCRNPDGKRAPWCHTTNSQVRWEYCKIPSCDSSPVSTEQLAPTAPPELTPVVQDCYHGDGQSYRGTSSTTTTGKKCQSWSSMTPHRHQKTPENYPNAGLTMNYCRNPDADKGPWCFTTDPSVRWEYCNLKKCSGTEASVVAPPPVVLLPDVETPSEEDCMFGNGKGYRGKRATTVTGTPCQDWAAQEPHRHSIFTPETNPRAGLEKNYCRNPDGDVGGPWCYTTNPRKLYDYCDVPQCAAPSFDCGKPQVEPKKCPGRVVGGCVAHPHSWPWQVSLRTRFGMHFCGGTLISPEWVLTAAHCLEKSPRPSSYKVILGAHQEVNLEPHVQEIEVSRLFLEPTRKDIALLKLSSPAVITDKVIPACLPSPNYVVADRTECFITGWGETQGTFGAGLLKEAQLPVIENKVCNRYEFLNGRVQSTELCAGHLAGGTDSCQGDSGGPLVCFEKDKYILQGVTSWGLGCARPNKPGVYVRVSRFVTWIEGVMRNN

For “rGAPDH C-terminal mutant (K336A) (from UniProt E4QS33 1-336) (enzyme)”, the Kd was 600 nM.
